Target: T1, nicotinamide phosphoribosyltransferase (NAMPT) (Homo sapiens (Human), UniProt P43490 1-491)
T1 construct: also called PBEF; visfatin
Test: method not stated

T1 sequence (P43490 whole entry): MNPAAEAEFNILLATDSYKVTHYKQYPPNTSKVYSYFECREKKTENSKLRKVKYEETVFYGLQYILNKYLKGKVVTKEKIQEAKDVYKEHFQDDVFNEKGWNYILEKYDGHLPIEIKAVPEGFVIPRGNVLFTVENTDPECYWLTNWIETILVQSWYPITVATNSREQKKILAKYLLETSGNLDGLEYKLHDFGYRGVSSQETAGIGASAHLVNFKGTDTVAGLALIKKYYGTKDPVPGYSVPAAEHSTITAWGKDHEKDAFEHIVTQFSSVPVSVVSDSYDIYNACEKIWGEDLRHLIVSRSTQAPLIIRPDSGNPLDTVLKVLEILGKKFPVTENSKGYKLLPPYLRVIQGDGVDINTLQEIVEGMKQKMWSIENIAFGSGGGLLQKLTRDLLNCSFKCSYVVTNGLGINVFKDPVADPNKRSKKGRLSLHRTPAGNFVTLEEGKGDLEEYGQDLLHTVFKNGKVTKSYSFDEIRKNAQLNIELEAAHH

B1: murine anti-NAMPT mAb AL303 (antibody, V domains shown)
VH: QVQLQQPGADLVKPGASVKLSCKASGYTFTSYWMQWVKQRPGQGLEWIGEIDPSNSYTNYNQKFRGKATLTVDPSSSTAYMQLSSLTSEDSAVYYCARGGYWGQGTTLTVSS
VL: DIVMTQAAFSNPVTLGTSASISCRSSKSLLHSNGITYLYWYLQKPGQSPQLLIYQMSNLASGVPDRFSSSGSGTDFTLRISRVEAEDVGVYYCVQNLELPYTFGGGTKLEIK
  Kd: 6 nM

B2: murine anti-NAMPT mAb AL310 (antibody, V domains shown)
VH: QVQLQQSGAESVMPGASVKLSCKASGYTFTSYWMHWVKQRPGQGLEWIGEIDPSDSYTNYNQKFKGKSTLTVDKSSSTAYMQLSSLTSEDSAVYYCAKSNYVVPWYFDVWGTGTTVTVSS
VL: DIVMTQAAFSNPVTLGTSASISCRSSKSLLHSNGITYLYWYLQKPGQSPQLLIYQMSNLASGVPDRFSSSGSGTDFTLRISRVEAEDVGVYYCAQNLELPWTFGGGTKLEIK
  Kd: 9 nM

Reference: patent US20200132689A1 (ARIZONA BOARD OF REGENTS ON BEHALF OF THE UNIVERSITY OF …, published 2020)
